Experimental data from patent publication US20260234258A1 (REPERTOIRE IMMUNE MEDICINES, published 2026).

Columns and labels:
[1] = biological target: T1, mouse CD8 (on CD8 T cells of mouse splenocytes) (mouse, UniProt P01731 28-247); test: flow cytometry on mouse splenocytes, gated cell types; IL2 loading detected with anti-IL2; median fluorescence intensity
T1 construct: whole, on cells; also called mCD8
Procedure: (§1) Anti-mouse CD8-human IL2 molecules were evaluated for their ability to specifically bind and load IL2 on CD8 T cells. Briefly, 1×10⁵ mouse splenocytes were incubated with indicated CD8-IL2 (human FC receptor) molecules from one of the concentrations ranging from 0.05 pM to 500 nM. Anti-mouse CD8 antibody was used as control. Following one hour incubation with molecules, splenocytes were washed twice with RPMI complete medium and once with PBS. The washed splenocytes were stained with anti-TL2 (MQ1-17H12), anti-human kappa (MHK-49) and lineage surface makers CD4(RM4-4), NK1.1(PK136) and CD19(6D5) for 20 minutes, after which the cells were washed and analyzed using flow cytometer. Mean fluorescence intensity data was analyzed using four parameter nonlinear regression method to calculated binding affinity in GraphPad prism.

[2] = biological target: T1, mouse CD8 (on CD8 T cells of mouse …); test: flow cytometry on mouse splenocytes, CD8 T cells; bound molecule detected with anti-human kappa; median fluorescence intensity
Procedure: as §1

[3] = biological target: T1, mouse CD8 (on CD8 T cells of mouse …); test: cell-based or functional assay
[4] = biological target: T1, mouse CD8 (on CD8 T cells of mouse …); test: flow cytometry on mouse splenocytes, CD8 T cells; IL2 loading detected with anti-IL2; median fluorescence intensity
Procedure: as §1

[5] = biological target: T2, human CD8 (on CD8 T cells of human PBMC) (human, UniProt P01732 22-235); test: flow cytometry on human PBMC, gated cell types; IL2 loading detected with anti-IL2; MFI
T2 construct: The assay used native CD8 on human PBMC; also called hCD8; NP_001139345.1
Procedure: (§2) Anti-human CD8-human IL2 molecules were evaluated for their ability to specifically bind and load IL2 on CD8 T cells. Briefly, […] human PBMC were co-cultured with indicated CD8-IL2 (human FC receptor) molecules from one of the concentrations ranging from 0.05 pM to 0.4 nM. Following one hour incubation with molecules, PBMC were washed twice with RPMI complete medium and washed once with PBS. The washed cells were stained with anti-IL2 (MQ1-17H12), anti-human kappa (MHK-49) and lineage surface markers CD3(UCHT1), CD4(SK3) and NK(HCD56) for 20 minutes, after which the cells were washed and analyzed using a flow cytometer. The binding affinity was quantified and represented as mean fluorescence intensity (MFI).

[6] = biological target: T2, human CD8 (on CD8 T cells of human PBMC); test: flow cytometry on human PBMC, CD8 T cells; bound molecule detected with anti-human kappa; MFI
Procedure: as §2

[7] = biological target: T2, human CD8 (on CD8 T cells of human PBMC); test: cell-based or functional assay
[8] = biological target: T2, human CD8 (on CD8 T cells of human PBMC); test: cell-based or functional assay; remark: listed apart in the source

T1 sequence (P01731 28-247): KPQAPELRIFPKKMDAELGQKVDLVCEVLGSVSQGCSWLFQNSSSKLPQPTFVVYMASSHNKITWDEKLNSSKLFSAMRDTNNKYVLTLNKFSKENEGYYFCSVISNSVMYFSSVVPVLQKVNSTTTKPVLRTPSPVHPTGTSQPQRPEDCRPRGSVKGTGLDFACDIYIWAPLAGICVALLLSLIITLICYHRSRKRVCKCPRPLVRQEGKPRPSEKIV
T2 sequence (P01732 22-235 limits assumed): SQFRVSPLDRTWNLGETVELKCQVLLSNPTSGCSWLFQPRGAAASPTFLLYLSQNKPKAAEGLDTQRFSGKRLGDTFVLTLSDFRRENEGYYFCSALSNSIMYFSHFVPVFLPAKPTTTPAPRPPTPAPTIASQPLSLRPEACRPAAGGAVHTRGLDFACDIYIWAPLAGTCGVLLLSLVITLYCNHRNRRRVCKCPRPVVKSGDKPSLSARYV

EC50 (read off the curve) [1]	EC50 (read off the curve) [2]	Percentage of CD8 T Cell expansion at 32 pm [3]	Percentage of CD8 T Cell expansion at 160 pm [3]	EC50 (read off the curve) [4]	EC50 (read off the curve) [5]	EC50 (read off the curve) [6]	EC50 pSTAT5 Activation, CD8+ T cells [7]	EC50 of Proliferation (percentage Ki67), CD8+ T cells [8]	Binder
~0.4 nM	~0.7 nM	56.1%	60.6%	~0.8 nM					mCD8 Fab Fc IL2 (LC) (YTS105) (antibody, human IgG1, kappa, L234A L235A, N297A, One-armed Fab-Fc (clone YTS105) with human IL-2 on the C-terminus of the light chain; also called mCD8 Fc-IL2(LC); CD8Fc-IL2) heavy: EVQLKESGPGLVQPSQTLSLTCTVSGFSLTSNSVHWVRQPPGKGLEWMGGIWGDGDTDYNSALKSRLSISRDTSKNQVFLKMNSLQTDDTAIYFCTPLIGSWYFDFWGPGTMVTASSASTKGPSVFPLAPSSKSTSGGTAALGCLVKDYFPEPVTVSWNSGALTSGVHTFPAVLQSSGLYSLSSVVTVPSSSLGTQTYICNVNHKPSNTKVDKKVEPKSCDKTHTCPPCPAPEAAGGPSVFLFPPKPKDTLMISRTPEVTCVVVDVSHEDPEVKFNWYVDGVEVHNAKTKPREEQYASTYRVVSVLTVLHQDWLNGKEYKCKVSNKALGAPIEKTISKAKGQPREPQVYTLPPSRDELTKNQVSLWCLVKGFYPSDIAVEWESNGQPENNYKTTPPVLDSDGSFFLYSKLTVDKSRWQQGNVFSCSVMHEALHNHYTQKSLSLSPGK DKTHTCPPCPAPEAAGGPSVFLFPPKPKDTLMISRTPEVTCVVVDVSHEDPEVKFNWYVDGVEVHNAKTKPREEQYASTYRVVSVLTVLHQDWLNGKEYKCKVSNKALGAPIEKTISKAKGQPREPQVYTLPPSRDELTKNQVSLSCAVKGFYPSDIAVEWESNGQPENNYKTTPPVLDSDGSFFLVSKLTVDKSRWQQGNVFSCSVMHEALHNHYTQKSLSLSPGK light: not shown
~0.05 nM	~0.04 nM	46.5%	63.2%	~0.05 nM					mCD8 IgG IL2 (HC) (YTS105) (antibody, Anti-mouse CD8 IgG (clone YTS105) with human IL-2 on the C-terminus of each heavy chain) heavy: not shown light: DIVMTQSPSSLAVSAGERVTLNCKASQNVRNNIAWYQQKPGQSPKLLIYYASYRYTGVPDRFTGDGFGTDFTLAINSVQADDAAFYYCQRIYNSPYTFGAGTKLELIRTVAAPSVFIFPPSDEQLKSGTASVVCLLNNFYPREAKVQWKVDNALQSGNSQESVTEQDSKDSTYSLSSTLTLSKADYEKHKVYACEVTHQGLSSPVTKSFNRGEC
	~0.04 nM								mCD8IgG (anti-mouse CD8 antibody control, clone YTS105) (antibody, not shown: a dimerising Fc or GST, Control without IL-2) heavy: EVQLKESGPGLVQPSQTLSLTCTVSGFSLTSNSVHWVRQPPGKGLEWMGGIWGDGDTDYNSALKSRLSISRDTSKNQVFLKMNSLQTDDTAIYFCTPLIGSWYFDFWGPGTMVTASSASTKGPSVFPLAPSSKSTSGGTAALGCLVKDYFPEPVTVSWNSGALTSGVHTFPAVLQSSGLYSLSSVVTVPSSSLGTQTYICNVNHKPSNTKVDKKVEPKSC light: DIVMTQSPSSLAVSAGERVTLNCKASQNVRNNIAWYQQKPGQSPKLLIYYASYRYTGVPDRFTGDGFGTDFTLAINSVQADDAAFYYCQRIYNSPYTFGAGTKLELIRTVAAPSVFIFPPSDEQLKSGTASVVCLLNNFYPREAKVQWKVDNALQSGNSQESVTEQDSKDSTYSLSSTLTLSKADYEKHKVYACEVTHQGLSSPVTKSFNRGEC
~0.3 nM	~0.5 nM	56.4%	59.7%	~0.6 nM					mCD8 Fab IL2 (LC) (YTS105) (Fab, Anti-mouse CD8 Fab (clone YTS105) with human IL-2 fused to the C-terminus of the light chain) heavy: EVQLKESGPGLVQPSQTLSLTCTVSGFSLTSNSVHWVRQPPGKGLEWMGGIWGDGDTDYNSALKSRLSISRDTSKNQVFLKMNSLQTDDTAIYFCTPLIGSWYFDFWGPGTMVTASSASTKGPSVFPLAPSSKSTSGGTAALGCLVKDYFPEPVTVSWNSGALTSGVHTFPAVLQSSGLYSLSSVVTVPSSSLGTQTYICNVNHKPSNTKVDKKVEPKSC light: not shown
					~0.03 nM	~0.03 nM	0.448 pM	0.0689 nM	hCD8 IgG IL2 1x (HC) (VH6/VK3) (antibody, Humanized 02A01 (VH6/VK3) anti-human CD8 IgG, knob-in-hole, one human IL-2 on the C-terminus of the knob heavy chain; also called hCD8 IgG IL2 1×(HC)) heavy 1: not shown heavy 2: EVQLVQSGAEVKKPGATVKISCKASGYTFTDFTMHWVQQAPGKGLEWIGLVNPNNGGNIYAEKFQGRVTLTVDTSTSTAYMELSSLRSEDTAVYYCGRVPLYTSHGMDYWGQGTLVTVSSASTKGPSVFPLAPSSKSTSGGTAALGCLVKDYFPEPVTVSWNSGALTSGVHTFPAVLQSSGLYSLSSVVTVPSSSLGTQTYICNVNHKPSNTKVDKKVEPKSCDKTHTCPPCPAPEAAGGPSVFLFPPKPKDTLMISRTPEVTCVVVDVSHEDPEVKFNWYVDGVEVHNAKTKPREEQYASTYRVVSVLTVLHQDWLNGKEYKCKVSNKALGAPIEKTISKAKGQPREPQVYTLPPSRDELTKNQVSLSCAVKGFYPSDIAVEWESNGQPENNYKTTPPVLDSDGSFFLVSKLTVDKSRWQQGNVFSCSVMHEALHNHYTQKSLSLSPGK light: EIVLTQSPATLSLSPGERATISCRASESVDSYDINSMHWYQQKPGQAPRLLIYRASHLQSGIPARFSGSGSRTDFTLTISSLEPEDFATYYCQQSNEDPLTFGQGTKLEIKRTVAAPSVFIFPPSDEQLKSGTASVVCLLNNFYPREAKVQWKVDNALQSGNSQESVTEQDSKDSTYSLSSTLTLSKADYEKHKVYACEVTHQGLSSPVTKSFNRGEC
